Assay results as given in paper PMC2928021.

Biological target: anaphase-promoting complex/cyclosome (APC/C), phosphorylated, of mitotic cells (human (endogenous in U2OS)) (UniProt P30260)
Assay: co-sedimentation

Chain of UniProt P30260 (P30260 whole entry, looked up, one chain of several): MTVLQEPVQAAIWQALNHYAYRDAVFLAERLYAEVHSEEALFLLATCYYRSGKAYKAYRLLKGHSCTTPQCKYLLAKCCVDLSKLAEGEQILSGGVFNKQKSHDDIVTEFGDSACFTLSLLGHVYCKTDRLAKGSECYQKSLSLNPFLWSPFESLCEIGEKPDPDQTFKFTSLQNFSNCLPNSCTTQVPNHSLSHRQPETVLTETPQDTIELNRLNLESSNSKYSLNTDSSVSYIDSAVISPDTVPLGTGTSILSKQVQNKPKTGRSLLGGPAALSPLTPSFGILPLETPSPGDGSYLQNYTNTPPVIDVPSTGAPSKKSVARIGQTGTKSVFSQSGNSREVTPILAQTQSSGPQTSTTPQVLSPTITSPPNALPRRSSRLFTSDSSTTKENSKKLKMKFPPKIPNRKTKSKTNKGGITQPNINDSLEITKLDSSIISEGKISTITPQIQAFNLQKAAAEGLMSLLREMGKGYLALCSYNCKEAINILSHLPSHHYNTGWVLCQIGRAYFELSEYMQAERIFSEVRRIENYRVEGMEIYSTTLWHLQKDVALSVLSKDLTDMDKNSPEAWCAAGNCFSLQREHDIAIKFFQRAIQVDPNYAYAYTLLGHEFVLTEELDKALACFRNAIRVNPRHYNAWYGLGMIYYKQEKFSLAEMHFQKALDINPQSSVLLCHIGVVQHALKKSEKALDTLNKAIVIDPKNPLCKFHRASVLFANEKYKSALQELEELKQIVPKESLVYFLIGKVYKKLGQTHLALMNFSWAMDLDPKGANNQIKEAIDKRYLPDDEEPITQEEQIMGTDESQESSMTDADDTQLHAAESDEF

With “cyclin B1–N–Cks1–Venus (from UniProt P14635;P61024)” as the substance, how does the percent comigrating read?
Its percent comigrating is 40%.
